Experiment in all cases: SPR
Background: SPR reads the build-up and loss of mass on a sensor chip optically.

Experiment [1] concerns the target T1, FcgRIIaR (human, UniProt P12318).
T1 chain: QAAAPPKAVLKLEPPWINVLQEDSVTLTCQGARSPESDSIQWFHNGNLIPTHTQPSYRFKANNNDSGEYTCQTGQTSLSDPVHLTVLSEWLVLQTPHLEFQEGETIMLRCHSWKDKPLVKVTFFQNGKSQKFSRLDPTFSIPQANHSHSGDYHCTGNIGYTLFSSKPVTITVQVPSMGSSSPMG

Experiment [2] concerns the target T2, FcgRIIIaV (human, UniProt P08637).
Experiment [3] has as its target T3, FcgRIIb (human, UniProt P31994).
T3 chain: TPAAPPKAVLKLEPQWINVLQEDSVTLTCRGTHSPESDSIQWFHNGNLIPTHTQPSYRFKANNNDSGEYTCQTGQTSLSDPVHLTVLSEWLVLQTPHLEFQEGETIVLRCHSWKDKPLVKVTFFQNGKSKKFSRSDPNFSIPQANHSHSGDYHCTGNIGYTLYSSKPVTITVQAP

The target of experiment [4] is T4, FcgRIIaH (human, UniProt P12318).
T4 chain: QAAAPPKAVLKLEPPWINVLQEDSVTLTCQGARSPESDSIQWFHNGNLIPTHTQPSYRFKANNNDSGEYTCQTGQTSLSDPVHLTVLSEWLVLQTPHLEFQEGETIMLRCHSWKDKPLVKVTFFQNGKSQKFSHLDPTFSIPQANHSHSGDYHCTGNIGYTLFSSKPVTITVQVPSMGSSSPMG

Experiment [5] has as its target T5, FcgRIa (human, UniProt P12314).
T5 chain: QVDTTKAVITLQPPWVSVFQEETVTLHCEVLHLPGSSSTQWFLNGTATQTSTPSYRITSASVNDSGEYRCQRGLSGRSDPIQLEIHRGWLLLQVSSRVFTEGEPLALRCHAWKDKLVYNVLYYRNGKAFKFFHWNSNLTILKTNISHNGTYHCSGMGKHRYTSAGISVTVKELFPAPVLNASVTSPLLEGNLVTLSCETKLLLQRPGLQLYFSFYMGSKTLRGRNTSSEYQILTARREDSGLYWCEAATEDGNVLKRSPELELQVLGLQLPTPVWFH

Experiment [6] deals with T4, FcgRIIaH.
In experiment [7] the target is T5, FcgRIa.
For experiment [8], the target named is T1, FcgRIIaR.
Experiment [9] has as its target T2, FcgRIIIaV. The source holds these as a separate data set.
Experiment [10] concerns the target T3, FcgRIIb.
The target in experiment [11] is T2, FcgRIIIaV. The source holds these as a separate data set.
In experiment [12] the target is T3, FcgRIIb.
Experiment [13] deals with T5, FcgRIa.
In experiment [14] the target is T1, FcgRIIaR.
Experiment [15] deals with T4, FcgRIIaH.
Experiment [16] has as its target T6, mFcgRI (mouse, UniProt P26151).
T6 chain: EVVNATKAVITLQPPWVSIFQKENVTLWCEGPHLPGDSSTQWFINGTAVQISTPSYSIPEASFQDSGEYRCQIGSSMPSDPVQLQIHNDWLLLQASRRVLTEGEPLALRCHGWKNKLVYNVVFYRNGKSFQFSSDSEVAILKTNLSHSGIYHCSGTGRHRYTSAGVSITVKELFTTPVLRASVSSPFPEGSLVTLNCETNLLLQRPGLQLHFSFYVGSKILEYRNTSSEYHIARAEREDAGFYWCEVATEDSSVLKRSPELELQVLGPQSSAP

The target of experiment [17] is T7, mFcgRIV (mouse, UniProt A0A0B4J1G0).
T7 chain: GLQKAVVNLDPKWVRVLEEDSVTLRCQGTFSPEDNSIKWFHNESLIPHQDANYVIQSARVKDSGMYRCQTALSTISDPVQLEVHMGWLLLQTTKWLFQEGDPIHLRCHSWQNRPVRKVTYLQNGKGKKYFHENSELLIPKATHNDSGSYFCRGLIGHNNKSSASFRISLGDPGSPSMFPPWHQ

This note sets out measurements from patent US11267868 (dated 2022).

In general, Kd refers to the concentration at which binding is half-saturated. Read a low Kd as a tighter complex.

Like-named read-outs stand apart in the source and are kept apart here.

T2 sequence (P08637 17-208 F176V): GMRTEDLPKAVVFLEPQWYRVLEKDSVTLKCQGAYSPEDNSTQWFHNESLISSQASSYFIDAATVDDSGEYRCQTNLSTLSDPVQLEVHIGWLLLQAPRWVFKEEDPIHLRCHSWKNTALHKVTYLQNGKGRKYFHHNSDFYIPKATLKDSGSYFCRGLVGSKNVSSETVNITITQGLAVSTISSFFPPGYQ

B1: IL6R-P577/IL6R-L (antibody)
chain 1: QVQLQESGPGLVKPSETLSLTCAVSGHSISHDHAWSWVRQPPGEGLEWIGFISYSGITNYNPSLQGRVTISRDNSKNTLYLQMNSLRAEDTAVYYCARSLARTTAMDYWGEGTLVTVSSASTKGPSVFPLAPSSKSTSGGTAALGCLVKDYFPEPVTVSWNSGALTSGVHTFPAVLQSSGLYSLSSVVTVPSSSLGTQTYICNVNHKPSNTKVDKKVEPKSCDKTHTCPPCPAPDLLGDDSVFLFPPKPKDTLMISRTPEVTCVVIDVAEEDGEVKFNWYVDGVEVHNAKTKPREEQDNSTYRVVSVLTVLHQDWLNGKEYKCKVSNKALPRPIEKTISKAKGQPREPQVYTLPPSRDELTKNQVSLTCLVKGFYPSDIAVEWESNGQPENNYKTTPMVLDSDGSFFLYSKLTVDKSRWQQGNVFSCSVMHEALHNHYTQKSLSLSP
chain 2: not shown
Take B1: the Kd worked out at 0.044 µM in experiment [1], 12 µM in experiment [2], 0.0012 µM in [3] and 1 µM in experiment [4].

B2: IL6R-P587/IL6R-L (antibody)
chain 1: QVQLQESGPGLVKPSETLSLTCAVSGHSISHDHAWSWVRQPPGEGLEWIGFISYSGITNYNPSLQGRVTISRDNSKNTLYLQMNSLRAEDTAVYYCARSLARTTAMDYWGEGTLVTVSSASTKGPSVFPLAPSSKSTSGGTAALGCLVKDYFPEPVTVSWNSGALTSGVHTFPAVLQSSGLYSLSSVVTVPSSSLGTQTYICNVNHKPSNTKVDKKVEPKSCDKTHTCPPCPAPDLLGGDSVFLFPPKPKDTLMISRTPEVTCVVIDVAEEDGEVKFNWYVDGVEVHNAKTKPREEQYNSTYRVVSVLTVLHQDWLNGKEYKCKVSNKALPAPIEKTISKAKGQPREPQVYTLPPSRDELTKNQVSLTCLVKGFYPSDIAVEWESNGQPENNYKTTPPVLDSDGSFFLYSKLTVDKSRWQQGNVFSCSVMHEALHNHYTQKSLSLSP
chain 2: not shown
As for B2, the Kd in experiment [5] stood at 0.00021 µM; in experiment [1] it was 0.71 µM; in experiment [6], 14 µM; in [7], 0.00071 µM; in experiment [8] it was 1.2 µM; in [2], 28 µM. Also, the Kd in experiment [9] is 32 µM; in experiment [10], 0.028 µM; in experiment [3], 0.015 µM; in experiment [4], 12 µM.

B3: IL6R-P699/IL6R-L (antibody)
chain 1: QVQLQESGPGLVKPSETLSLTCAVSGHSISHDHAWSWVRQPPGEGLEWIGFISYSGITNYNPSLQGRVTISRDNSKNTLYLQMNSLRAEDTAVYYCARSLARTTAMDYWGEGTLVTVSSASTKGPSVFPLAPSSKSTSGGTAALGCLVKDYFPEPVTVSWNSGALTSGVHTFPAVLQSSGLYSLSSVVTVPSSSLGTQTYICNVNHKPSNTKVDKKVEPKSCDKTHTCPPCPAPDLLGGDSVFLFPPKPKDTLMISRTPEVTCVVIDVRPEDGEVKFNWYVDGVEVHNAKTKPREEQYNSTYRVVSVLTVLHQDWLNGKEYKCKVSNKALPAPIEKTISKAKGQPREPQVYTLPPSRDELTKNQVSLTCLVKGFYPSDIAVEWESNGQPENNYKTTPPVLDSDGSFFLYSKLTVDKSRWQQGNVFSCSVMHEALHNHYTQKSLSLSP
chain 2: not shown
As to B3, the Kd turned out to be 65 µM in experiment [11]; 4.1 µM in [12]; 0.69 µM in [13]; 57 µM in experiment [14]; 250 µM in experiment [15].

B4: IL6R-P730/IL6R-L (antibody)
chain 1: QVQLQESGPGLVKPSETLSLTCAVSGHSISHDHAWSWVRQPPGEGLEWIGFISYSGITNYNPSLQGRVTISRDNSKNTLYLQMNSLRAEDTAVYYCARSLARTTAMDYWGEGTLVTVSSASTKGPSVFPLAPSSKSTSGGTAALGCLVKDYFPEPVTVSWNSGALTSGVHTFPAVLQSSGLYSLSSVVTVPSSSLGTQTYICNVNHKPSNTKVDKKVEPKSCDKTHTCPPCPAPDLLGQDSVFLFPPKPKDTLMISRTPEVTCVVIDVRPEDGEVKFNWYVDGVEVHNAKTKPREEQENSTYRVVSVLTVLHQDWLNGKEYKCKVSNKALPAPIEKTISKAKGQPREPQVYTLPPSRDELTKNQVSLTCLVKGFYPSDIAVEWESNGQPENNYKTTPPVLDSDGSFFLYSKLTVDKSRWQQGNVFSCSVMHEALHNHYTQKSLSLSP
chain 2: not shown
With B4, the Kd was found to be 73 µM in experiment [11]; 10 µM in experiment [12]; 1.5 µM in experiment [13]; 95 µM in experiment [14]; 310 µM in experiment [15].

B5: VH3/L(WT)-mIgG1 (antibody)
chain 1: QVQLQESGPGLVKPSETLSLTCAVSGHSISHDHAWSWVRQPPGEGLEWIGFISYSGITNYNPSLQGRVTISRDNSKNTLYLQMNSLRAEDTAVYYCARSLARTTAMDYWGEGTLVTVSSAKTTPPSVYPLAPGSAAQTNSMVTLGCLVKGYFPEPVTVTWNSGSLSSGVHTFPAVLQSDLYTLSSSVTVPSSTWPSETVTCNVAHPASSTKVDKKIVPRDCGCKPCICTVPEVSSVFIFPPKPKDVLTITLTPKVTCVVVDISKDDPEVQFSWFVDDVEVHTAQTQPREEQFNSTFRSVSELPIMHQDWLNGKEFKCRVNSAAFPAPIEKTISKTKGRPKAPQVYTIPPPKEQMAKDKVSLTCMITDFFPEDITVEWQWNGQPAENYKNTQPIMDTDGSYFVYSKLNVQKSNWEAGNTFTCSVLHEGLHNHHTEKSLSHSPGK
chain 2: not shown
Turning to B5, the binding result in [16] and in experiment [17] was “no binding” each time.
